Experiment [1] addresses fibrin matrix (thrombin- and factor XIIIa-treated human fibrinogen) (human) (UniProt P02671). Put plainly: confocal microscopy of perfused fibrin matrices.
Experiment [2] concerns the target fibrinogen fragment D (human). The experiment in a line: SPR. (In general: In SPR one partner is held on a chip, and binding of the other changes the refractive index at the surface.)

Chain of UniProt P02671 (P02671 36-866, chain 1 of 3): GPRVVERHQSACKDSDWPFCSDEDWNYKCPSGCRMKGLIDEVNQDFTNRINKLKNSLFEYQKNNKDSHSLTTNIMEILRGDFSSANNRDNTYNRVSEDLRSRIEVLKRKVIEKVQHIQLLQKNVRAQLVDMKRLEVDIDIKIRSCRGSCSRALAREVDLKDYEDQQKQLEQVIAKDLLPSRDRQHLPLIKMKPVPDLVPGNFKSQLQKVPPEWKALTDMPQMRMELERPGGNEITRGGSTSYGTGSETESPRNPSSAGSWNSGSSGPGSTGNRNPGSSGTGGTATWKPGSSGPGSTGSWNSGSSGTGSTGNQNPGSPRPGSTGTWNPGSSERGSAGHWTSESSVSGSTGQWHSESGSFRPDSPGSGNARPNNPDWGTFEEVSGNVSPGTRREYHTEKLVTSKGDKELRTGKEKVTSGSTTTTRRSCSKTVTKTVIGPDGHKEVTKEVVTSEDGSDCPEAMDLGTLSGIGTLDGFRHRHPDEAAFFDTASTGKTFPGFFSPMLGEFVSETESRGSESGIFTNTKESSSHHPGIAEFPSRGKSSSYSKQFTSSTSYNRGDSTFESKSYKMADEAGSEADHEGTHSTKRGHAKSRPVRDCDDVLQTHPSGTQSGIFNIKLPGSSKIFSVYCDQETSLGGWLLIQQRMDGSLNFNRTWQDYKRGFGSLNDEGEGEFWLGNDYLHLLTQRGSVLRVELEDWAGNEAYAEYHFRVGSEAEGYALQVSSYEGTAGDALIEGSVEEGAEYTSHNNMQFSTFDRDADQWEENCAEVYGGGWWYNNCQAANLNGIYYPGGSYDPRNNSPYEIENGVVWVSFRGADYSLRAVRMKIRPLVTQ
Chain of UniProt P02671 (P02675 45-491, chain 2 of 3, further chain): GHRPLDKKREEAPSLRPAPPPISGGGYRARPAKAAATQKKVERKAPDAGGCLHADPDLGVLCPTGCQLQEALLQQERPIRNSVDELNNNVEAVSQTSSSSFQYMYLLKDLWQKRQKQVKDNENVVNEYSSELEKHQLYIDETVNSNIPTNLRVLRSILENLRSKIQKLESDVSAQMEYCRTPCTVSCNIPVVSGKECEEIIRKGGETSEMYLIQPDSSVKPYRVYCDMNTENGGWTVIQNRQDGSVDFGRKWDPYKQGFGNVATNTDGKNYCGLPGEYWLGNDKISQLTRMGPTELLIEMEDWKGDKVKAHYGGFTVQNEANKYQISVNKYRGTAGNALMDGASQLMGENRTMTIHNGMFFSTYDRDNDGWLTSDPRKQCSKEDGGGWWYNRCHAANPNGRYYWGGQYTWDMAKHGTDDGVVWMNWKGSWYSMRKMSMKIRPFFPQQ
Chain of UniProt P02671 (P02679 27-453, chain 3 of 3, further chain): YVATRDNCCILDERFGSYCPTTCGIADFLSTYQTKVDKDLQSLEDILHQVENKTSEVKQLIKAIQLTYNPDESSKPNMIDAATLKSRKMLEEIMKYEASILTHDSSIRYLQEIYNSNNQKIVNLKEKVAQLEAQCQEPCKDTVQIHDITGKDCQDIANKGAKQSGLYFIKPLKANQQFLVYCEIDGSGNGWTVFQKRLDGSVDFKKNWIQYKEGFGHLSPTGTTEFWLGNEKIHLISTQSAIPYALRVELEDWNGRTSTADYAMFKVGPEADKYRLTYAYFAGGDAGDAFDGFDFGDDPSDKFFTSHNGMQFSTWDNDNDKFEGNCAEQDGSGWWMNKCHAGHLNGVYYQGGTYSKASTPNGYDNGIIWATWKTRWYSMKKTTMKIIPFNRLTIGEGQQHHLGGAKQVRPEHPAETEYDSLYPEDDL

GPRP-FnIII9-10-AF633 (designed binder): in experiment [1], the percent of fibrin matrix still retaining the conjugate after perfusion amounted to 12.8%. A word on the Kd: it is a measure of binding affinity in units of concentration. Read a low Kd as higher affinity. GPRV-FnIII9-10 (designed binder) came in with a Kd in experiment [2] of 125 µM. Turning to GPRP-FnIII9-10 (designed binder), in experiment [2], the KD with a 10-molar excess of soluble GPRP peptide worked out at 43 µM and the equilibrium dissociation constant (Kd) turned out to be 3 µM.
